Reference: patent WO2009024653A1 (dated 2009)

Assays:
[1] = target: T1, RHD5, human monoclonal IgG1 antibody directed against the C1 domain of factor VIII (LMBP 6165CB); assay: cell-based or functional assay
[2] = target: T1, RHD5, human monoclonal IgG1 antibody …; assay: SPR (Biacore), RHD5 immobilised on a CM5 chip, 18B6 injected
[3] = target: T1, RHD5, human monoclonal IgG1 antibody …; assay: competition ELISA, coated recFVIII, RHD5 at 2 ug/ml pre-incubated with 18B6

T1 sequence (VH, as listed by the source, chain 1 of 2): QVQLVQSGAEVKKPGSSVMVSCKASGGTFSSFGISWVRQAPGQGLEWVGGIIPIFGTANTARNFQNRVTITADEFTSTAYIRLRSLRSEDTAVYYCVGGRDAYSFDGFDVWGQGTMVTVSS
T1 sequence (VL, as listed by the source, chain 2 of 2): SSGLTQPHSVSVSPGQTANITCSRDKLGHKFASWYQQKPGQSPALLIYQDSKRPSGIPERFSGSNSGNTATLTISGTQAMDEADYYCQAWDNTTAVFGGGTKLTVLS

B1: anti-idiotypic monoclonal antibody 18B6 (produced by hybridoma 18B6, CNCM I-3559) (antibody, mouse IgG1, V domains shown)
VH: QVQLQQSGAELAKPGASVKMSCKASGYTFTTYWMHWIKQRPGQDLEWIGYINPTSGYTEYNQNFKDKATLTADKSSSTAYMQLNSLTSEDSAVYFCARSGAYYRYDDAMDSWGQGTSVTVSS
VL: QIVLSQSPAILSASPGEKVTMTCRASSSVSYMNWYQQKPGSSPKPWIYATSNLASGVPARFSGSGSGTSYSLTISRVEAEDAATYYCQQWSSNPPMLTFGAGTKLELK
notes: also called anticorps anti-idiotypique 18B6; clone 18B6 anti-RHD5
neutralisation of the inhibitory (anti-FVIII) activity of RHD5, chromogenic factor VIII test (DADE), RHD5 0.4 ug/ml, FVIII Kogenate 0.5 U/ml [1]: 50 % neutralisation at an equimolar RHD5/18B6 ratio | koff [2]: 1.45e-05 s⁻¹ | kon [2]: 4260 M⁻¹ s⁻¹ | RHD5/18B6 molar ratio at 50% inhibition of RHD5 binding to FVIII [3]: 2.5 molar ratio RHD5/18B6 | percent inhibition of RHD5 binding to FVIII at an equimolar ratio [3]: 92%
